Each block holds one molecule with its values, some of them ahead of it.
What was measured:
streptavidin C1 = molecular target: T1, streptavidin C1 (Streptomyces virginiae, UniProt A0ABQ3NKM7); test: microscale thermophoresis (MST), His-tag-labelled protein; assay type: binding
T1 construct: ORF Met1-Glu191 in pET-21a, E. coli BL21; His-tagged (C1-His); mature N-terminus 34-SADPR-38; homotetramer about 76 kDa
T1 sequence (A0ABQ3NKM7 26-191 limits assumed): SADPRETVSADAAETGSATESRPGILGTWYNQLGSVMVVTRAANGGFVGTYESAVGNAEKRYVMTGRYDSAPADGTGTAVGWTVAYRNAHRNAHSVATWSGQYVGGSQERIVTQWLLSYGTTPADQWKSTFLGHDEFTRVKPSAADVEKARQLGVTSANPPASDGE

streptavidin C2 = molecular target: T2, streptavidin C2 (Streptomyces virginiae, UniProt A0ABQ3NKS0); test: as above; assay type: binding; conditions: read-out: apparent K d
T2 construct: gene Scinn_28310; cloned in pET-21a, E. coli BL21; His-tagged (C2-His); homotetramer about 68 kDa

avidin = molecular target: T3, avidin (Gallus gallus, UniProt P02701); test: thermal unfolding, intrinsic fluorescence […] nm (Tycho NT.[…]); assay type: binding; conditions: PBS-T, 1 mg/ml protein, 4 mg/ml D-biotin
T3 construct: gene AVD; homotetramer
T3 sequence (P02701 25-152): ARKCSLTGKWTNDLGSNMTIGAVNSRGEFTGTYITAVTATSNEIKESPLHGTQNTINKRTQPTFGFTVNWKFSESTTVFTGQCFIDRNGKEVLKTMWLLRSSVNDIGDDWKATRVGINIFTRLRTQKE

[1] = molecular target: streptavidin C1 from Streptomyces cinnamonensis strain KPP02129, recombinant mature form (Streptomyces cinnamonensis); test: SEC-MALS; Superdex 200 10/300 GL, 20 mM Tris-HCl pH 8.0, 100 mM NaCl, 2 mM DTT; 1-2 mg/ml, 0.25 ml injected, 0.8 ml/min
[2] = molecular target: streptavidin C1 from Streptomyces cinnamonensis strain KPP02129, recombinant mature form (Streptomyces cinnamonensis); test: SDS-PAGE (oligomer bands); purified protein in 1x SDS sample buffer (1% SDS, with or without β-mercaptoethanol), incubated 20 min at 25-100°C, with or without biotin
[3] = molecular target: streptavidin C2 from Streptomyces cinnamonensis strain KPP02129, recombinant (Streptomyces cinnamonensis); test: SEC-MALS; Superdex 200 10/300 GL, 20 mM Tris-HCl pH 8.0, 100 mM NaCl, 2 mM DTT; 1-2 mg/ml, 0.25 ml injected, 0.8 ml/min
[4] = molecular target: streptavidin C2 from Streptomyces cinnamonensis strain KPP02129, recombinant (Streptomyces cinnamonensis); test: SDS-PAGE (oligomer bands); purified protein in 1x SDS sample buffer (1% SDS, with or without β-mercaptoethanol), incubated 20 min at 25-100°C, with or without biotin
[5] = molecular target: C-terminal deletion mutant ΔC1 of streptavidin C1 (amino acids 1-161) (Streptomyces cinnamonensis); test: MST; Monolith NT.115; 200 nM His-tag-labelled (RED-tris-NTA) ΔC1-His or ΔC2-His, unlabelled peptide 2.4414-80 000 nM, PBS with 0.05% Tween 20, 10 min at room temperature, measured at 25°C, 40% LED power, 60% MST power, triplicate
[6] = molecular target: C-terminal deletion mutant ΔC2 of streptavidin C1 (amino acids 1-158) (Streptomyces cinnamonensis); test: as above

Molecule: O=C(O)CCCC[C@@H]1SC[C@@H]2NC(=O)N[C@@H]21 [D-biotin]
Kd (streptavidin C1): ~0.00306 nM
Kd (streptavidin C2): 0.00306 ± 0.0008 nM
T i (avidin): streptavidin (green) and avidin (brown) with or without biotin from differential scanning fluorimetry

B1: C-Lid_ECP peptide of streptavidin C1 (peptide)
peptide: SAADVEKARQLGVTSANPPASDGE
Kd [5]: 21000 nM
Kd [6]: 7300 nM

B2: ECP peptide (extension C-terminal peptide) of streptavidin C1 (peptide)
peptide: LGVTSANPPASDGE
Kd [5]: 49 nM
Kd [6]: 110 nM

More lines, now with the values ahead:

stoichiometry N [1]: 4
stoichiometry N [2]: 4
Molecule: streptavidin C1 from Streptomyces cinnamonensis strain KPP02129, recombinant mature form (natural protein)

stoichiometry N [3]: 4
stoichiometry N [4]: 4
Molecule: streptavidin C2 from Streptomyces cinnamonensis strain KPP02129, recombinant (natural protein)
